In this assay the test system is yeast gat1 mutant. Put plainly: Lipidomic analysis of phospholipids from yeast gat1 transformed with TpGPAT or GAT1, fed EPA or DHA. The assay is classed as cell-based, Saccharomyces cerevisiae. The conditions noted are these: tandem mass spectrometer lipidomics. The source says: FIG. 4 graphically depicts the results of the lipidomic analysis (fatty acid composition) of the lipids from yeast gat1 mutants transformed with either TpGPAT1 or GAT1. Yeast cells expressing TpGPAT or yeast GAT1 were fed with EPA (20:5) or DHA (22:6) upon induction of the genes. Total lipids from the yeast cells were extracted and subjected to lipidomic analysis using a tandem mass spectrometer. The results are presented as the molar ratio of EPA- or DHA-containing phospholipids (PC, PE, PS, PI) in the total phospholipids.
To further determine the role of TpGPAT in the incorporation of VLGPUFAs into glycerolipids, yeast gat1 strain transformed with TpGPAT or GAT1 under the control of the GAL1 promoter was grown in the presence of EPA (20:5) or DHA (22:6) upon induction of the genes. Phospholipids were extracted and subjected to lipidomic analysis using a tandem mass spectrometer (testing conducted by the Kansas Lipidomics Research Center). […] It was thus concluded that TpGPAT has a role in controlling PUFA accumulation in glycerolipid.

B1: GAT1: yeast (S. cerevisiae) glycerol-3-phosphate acyltransferase gene GAT1 expressed under GAL1 promoter as comparator (protein, listed as Saccharomyces cerevisiae)
chain: MSAPAADHNAAKPIPHVPQASRRYKNSYNGFVYNIHTWLYDVSVFLFNILFTIFFREIKVRGAYNVPEVGVPTILVCAPHANQFIDPALVMSQTRLLKTSAGKSRSRMPCFVTAESSFKKRFISFFGHAMGGIPVPRIQDNLKPVDENLEIYAPDLKNHPEIIKGRSKNPQTTPVNFTKRFSAKSLLGLPDYLSNAQIKEIPDDETIILSSPFRTSKSKVVELLTNGTNFKYAEKIDNTETFQSVFDHLHTKGCVGIFPEGGSHDRPSLLPIKAGVAIMALGAVAADPTMKVAVVPCGLHYFHRNKFRSRAVLEYGEPIVVDGKYGEMYKDSPRETVSKLLKKITNSLFSVTENAPDYDTLMVIQAARRLYQPVKVRLPLPAIVEINRRLLFGYSKFKDDPRIIHLKKLVYDYNRKLDSVGLKDHQVMQLKTTKLEALRCFVTLIVRLIKFSVFAILSLPGSILFTPIFIICRVYSEKKAKEGLKKSLVKIKGTDLLATWKLIVALILAPILYVTYSILLIILARKQHYCRIWVPSNNAFIQFVYFYALLVFTTYSSLKTGEIGVDLFKSLRPLFVSIVYPGKKIEEIQTTRKNLSLELTAVCNDLGPLVFPDYDKLATEIFSKRDGYDVSSDAESSISRMSVQSRSRSSSIHSIGSLASNALSRVNSRGSLTDIPIFSDAKQGQWKSEGETSEDEDEFDEKNPAIVQTARSSDLNKENSRNTNISSKIASLVRQKREHEKKE
Turning to B1, the “Molar percentage of DHA in phospholipids” value (yeast gat1 fed DHA (22:6)) is on record as 0.235%. Further, the “Molar percentage of EPA in phospholipids” value (yeast gat1 fed EPA (20:5)) is given as 2.025%.

The values are drawn from patent US20110093983A1, “ALGAL GLYCEROL-3 PHOSPHATE ACYLTRANSFERASE” (National Research Council of Canada, priority 2008, published 2011).
